Target: T1, RMI1C (C-terminal domain of human RMI1, residues 475-625) (human, UniProt Q9H9A7 475-625, Se-Met substituted in the crystals)
T1 sequence (looked up): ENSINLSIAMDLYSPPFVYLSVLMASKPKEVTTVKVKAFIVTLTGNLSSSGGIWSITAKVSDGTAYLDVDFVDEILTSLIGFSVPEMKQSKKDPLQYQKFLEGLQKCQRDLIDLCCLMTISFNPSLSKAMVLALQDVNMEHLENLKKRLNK
Test: crystal structure + SEC

B1: RMI2 (residues 6-147) (domain or fragment, human, UniProt Q96E14 6-147, looked up)
chain: DSFSGGPAGVRLPRSPPLKVLAEQLRRDAEGGPGAWRLSRAAAGRGPLDLAAVWMQGRVVMADRGEARLRDPSGDFSVRGLERVPRGRPCLVPGKYVMVMGVVQACSPEPCLQAVKMTDLSDNPIHESMWELEVEDLHRNIP
modifications: Se-Met substituted in the crystals
  stoichiometry N: 1 RMI1C:RMI2
